The values that follow come from patent EP3085709A1 (Genor Biopharma Co., Ltd, dated 2016).

The labels stand for the following.
B4: recombinant human RANKL (soluble, Gly136-Asp317, N-terminal 10 His, expressed in CHO cells) (ligand)
chain: HHHHHHHHHHGSQHIRAEKAMVDGSWLDLAKRSKLEAQPFAHLTINATDIPSGSHKVSLSSWYHDRGWAKISNMTFSNGKLIVNQDGFYYLYANICFRHHETSGDLATEYLQLMVYVTKTSIKIPSSHTLMKGGSTKYWSGNSEFHFYSINVGGFFKLRSGEEISIEVSNPSLLDPDQDATYFGAFKVRDID

The target of experiment [1] is T1, recombinant human RANKL (soluble, Gly136-Asp317, N-terminal 10 His, expressed in CHO cells) (human) (UniProt O14788).
T1 sequence: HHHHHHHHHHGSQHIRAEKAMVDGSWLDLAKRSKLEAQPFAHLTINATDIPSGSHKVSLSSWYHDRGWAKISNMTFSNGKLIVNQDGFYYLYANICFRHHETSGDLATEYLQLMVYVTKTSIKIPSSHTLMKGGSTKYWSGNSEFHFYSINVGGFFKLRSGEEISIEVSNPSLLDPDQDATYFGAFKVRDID
Nature of the experiment: ELISA, recombinant human RANKL coated 1 µg/ml, RANK-Fc titrated. (ELISA stands for enzyme-linked immunosorbent assay.)

Experiment [2] deals with commercial hRANKL standard (R & D Systems) (human) (UniProt O14788). Nature of the experiment: ELISA, commercial hRANKL standard coated 1 µg/ml, RANK-Fc titrated.
Experiment [3] concerns the target RANK receptor on RAW264.7 cells (mouse (RAW264.7 cells)) (UniProt O35305). Nature of the experiment: cell-based or functional assay.
Experiment [4] addresses T1, recombinant human RANKL (soluble, Gly136-Asp317, N-terminal 10 His, expressed in CHO cells) (human). Nature of the experiment: ELISA, hRANKL coated 1 µg/ml, scFv supernatant, anti-c-myc detection.
Experiment [5] concerns the target T2, RANK receptor on RAW264.7 cells (mouse (RAW264.7 cells), UniProt O35305 31-625).
T2 sequence (looked up): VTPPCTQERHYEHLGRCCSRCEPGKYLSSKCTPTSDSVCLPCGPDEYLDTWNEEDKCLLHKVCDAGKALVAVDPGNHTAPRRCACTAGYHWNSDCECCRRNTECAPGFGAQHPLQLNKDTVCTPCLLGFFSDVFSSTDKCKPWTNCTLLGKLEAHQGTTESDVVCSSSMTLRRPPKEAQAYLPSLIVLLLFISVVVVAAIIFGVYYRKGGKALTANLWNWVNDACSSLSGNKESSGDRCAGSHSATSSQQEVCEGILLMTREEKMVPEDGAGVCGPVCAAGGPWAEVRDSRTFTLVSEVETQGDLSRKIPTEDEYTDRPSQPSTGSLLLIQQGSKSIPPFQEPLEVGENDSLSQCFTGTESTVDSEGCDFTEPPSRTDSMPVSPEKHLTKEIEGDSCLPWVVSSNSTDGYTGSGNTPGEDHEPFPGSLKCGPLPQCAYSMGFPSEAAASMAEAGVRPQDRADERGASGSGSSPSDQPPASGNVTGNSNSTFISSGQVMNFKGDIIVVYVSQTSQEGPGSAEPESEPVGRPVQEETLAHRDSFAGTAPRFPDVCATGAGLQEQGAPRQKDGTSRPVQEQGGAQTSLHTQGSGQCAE
Nature of the experiment: cell-based or functional assay.

Experiment [6] deals with B4. Nature of the experiment: cell-based or functional assay.
Experiment [7] concerns the target B4. Nature of the experiment: ELISA, hRANKL coated 1 µg/ml; concentration at 50% Bmax; Plate#02.
The target of experiment [8] is B4. Nature of the experiment: competitive ELISA, RANK-Fc coated, antibody pre-incubated with 0.25 µg/ml hRANKL; Plate#02.
The target of experiment [9] is B4. Nature of the experiment: cell-based or functional assay. This is another data set of the same source.
Experiment [10] has as its target B4. Nature of the experiment: competitive ELISA, RANK-Fc coated, method of Example 18; antibody from CHO-S cells.
The target in experiment [11] is B4. Nature of the experiment: ELISA, hRANKL coated, method of Example 17; antibody from CHO-S cells.
The target of experiment [12] is B4. Nature of the experiment: ELISA, hRANKL coated 1 µg/ml; concentration at 50% Bmax; Plate#03.
In experiment [13] the target is B4. Nature of the experiment: competitive ELISA, RANK-Fc coated, antibody pre-incubated with 0.25 µg/ml hRANKL; third plate (printed Plate#02).
The target of experiment [14] is B4. Nature of the experiment: ELISA, hRANKL coated 1 µg/ml; concentration at 50% Bmax; Plate#01.
Experiment [15] has as its target B4. Nature of the experiment: competitive ELISA, RANK-Fc coated, antibody pre-incubated with 0.25 µg/ml hRANKL; Plate#01.

By EC50 is commonly meant the concentration at which the effect is half-maximal. Take RANK-Fc (R & D Systems) (Fc fusion): the concentration for a half-maximal effect (EC50) in experiment [1] amounted to 0.0109 µg/mL; in [2], 0.0056 µg/mL.
“commercial hRANKL standard (R & D Systems) (from UniProt O14788 140-317) (ligand)”: the EC50 of inducing RAW264.7 cells to differentiate into osteoclasts (TRAP activity, pNPP) in experiment [3] stood at 35.7 ng/ml.

B1: pFL249-H16 scFv clone (scFv, not shown: small tags and cut ends)
scFv: QVQLVQSGAELKKPGASVKLSCKASGYTFTTYWLQWVRQAPGQGLEWMGAIYPGPGNTKYTQKFKDRFTITADKSKSTAYMQLNSLKSEDSAVYYCARRGSRRGIAYWGQGTLVTVSAGGGGSGGGGSGGGGSNIVLTQSPASLAVSLGQRATISCRASESVDSYGRSFMHWYQQRPGQPPTLLIYLASNLESGVPVRFSGSGSRTDFTLTIDPVEADDAATYYCQQDNEDPYTFGGGTKLEIK
On to B1, for which, in experiment [4], the OD450 was 1.2 OD450.

B2: pFL249-H114 scFv clone (scFv, not shown: small tags and cut ends)
scFv: QVQLVQSGAELVQPGASVKLSCKASGYTFTTYWLQWVRQTPGQGLEWMGAIYPGPGNTKYTQKFKDRVTITADTSTSTAYMQLNSLRSEDSAVYYCARRGSRRGIAYWGQGTLVTVSAGGGGSGGGGSGGGGSNIVLTQSPASLAVSLGQRATISCRASESVDSYGRSFMHWYQQRPGQPPTLLIYLASNLESGVPVRFSGSGSRTDFTLTIDPVEADDAATYYCQQDNEDPYTFGGGTKLEIK
On to B2, for which, in experiment [4], the OD450 stood at 1.2 OD450.

B3: pFL249-H16u scFv clone (scFv, not shown: small tags and cut ends)
scFv: QVQLVQSGAELKKPGASVKLSCKASGYTFTTYWLQWVRQAPGQGLEWMGAIYPGPGNTKYTQKFKDRFTITADTSKSTAYMQLNSLKSEDSAVYYCARRGSRRGIAYWGQGTLVTVSAGGGGSGGGGSGGGGSNIVLTQSPASLAVSLGQRATISCRASESVDSYGRSFMHWYQQRPGQPPTLLIYLASNLESGVPVRFSGSGSRTDFTLTIDPVEADDAATYYCQQDNEDPYTFGGGTKLEIK
Take B3: the OD450 in [4] stood at 1.2 OD450.
As to B4, the “EC50 of inducing RAW264.7 cells to differentiate into osteoclasts (TRAP activity, pNPP)” value in experiment [5] was 113 ng/ml.

B5: G12 (antibody, human IgG2, kappa, V domains shown)
VH: QVQLVQSGAELKKPGASVKLSCKASGYTFTTYWLQWVRQAPGQGLEWMGAIYPGPGNTKYTQKFKDRFTITADTSKSTAYMQLNSLKSEDSAVYYCARRGSRRGIAYWGQGTLVTVSA
VL: NIVLTQSPASLSVSLGQRATISCRASESVDSYGRSFMHWYQQRPGQAPKLLIYLASNLESGVPARFSGSGSRTDFTLTISSVEAEDEATYYCQQDNEDPYTFGGGTKLEIKG
notes: 293F cells
The term IC50 denotes the concentration that inhibits the measured activity by half. As for B5, in experiment [6], the “IC50 (ng/ml) in RAW264.7 cells” value was about 1060 ng/mL. In [7], the EC50 was 0.00175 µg/mL. In addition, in experiment [8], the IC50 is 0.36 µg/mL.

B6: G14 (antibody, human IgG2, kappa, V domains shown)
VH: QVQLVQSGAEVKKPGASVKVSCKASGYTFTTYWLQWVRQAPGQGLEWMGAIYPGPGNTKYTQKFKDRVTITADESTSTAYMELSSLRSEDTAVYYCARRGSRRGIAYWGQGTLVTVSA
VL: DIVMTQSPDSLAVSLGERATINCRASESVDSYGRSFMHWYQQKPGQAPRLLIYLASNLESGVPSRFSGSGSGTDFTLTINSLEAEDAATYYCQQDNEDPYTFGGGTKLEIKG
Turning to B6, in [6], the “IC50 (ng/ml) in RAW264.7 cells” value is about 517 ng/mL. The “IC50 for inhibiting cell differentiation of RAW264.7” value in experiment [9] was 0.247 µg/mL. In addition, the IC50 was determined as 0.16 µg/mL in [10] and 0.12 µg/mL in experiment [13]. Besides, the values for the EC50 in [11] and in experiment [12] were 0.00209 µg/mL and 0.004 µg/mL, respectively.

B7: G8 (antibody, human IgG2, kappa, V domains shown)
VH: QVQLVQSGAELVQPGASVKLSCKASGYTFTTYWLQWVRQTPGQGLEWMGAIYPGPGNTKYTQKFKDRVTITADTSTSTAYMQLNSLRSEDSAVYYCARRGSRRGIAYWGQGTLVTVSA
VL: NIVLTQSPASLSVSLGQRATISCRASESVDSYGRSFMHWYQQRPGQAPKLLIYLASNLESGVPARFSGSGSRTDFTLTISSVEAEDEATYYCQQDNEDPYTFGGGTKLEIKG
On to B7, for which the “IC50 (ng/ml) in RAW264.7 cells” value in experiment [6] was about 573 ng/mL. In addition, the “IC50 for inhibiting cell differentiation of RAW264.7” value in experiment [9] was determined as 0.329 µg/mL. The concentration for half-maximal inhibition (IC50) stood at 0.37 µg/mL in experiment [10] and 0.38 µg/mL in experiment [8]. The EC50 was found to be 0.00276 µg/mL in [7] and 0.00405 µg/mL in experiment [11].

B8: G4 (antibody, human IgG2, kappa, V domains shown)
VH: QVQLVQSGAELKKPGASVKLSCKASGYTFTTYWLQWVRQAPGQGLEWMGAIYPGPGNTKYTQKFKDRFTITADKSKSTAYMQLNSLKSEDSAVYYCARRGSRRGIAYWGQGTLVTVSA
VL: NIVLTQSPASLSVSLGQRATISCRASESVDSYGRSFMHWYQQRPGQAPKLLIYLASNLESGVPARFSGSGSRTDFTLTISSVEAEDEATYYCQQDNEDPYTFGGGTKLEIKG
notes: 293F cells
For the molecule B8, the “IC50 (ng/ml) in RAW264.7 cells” value in experiment [6] is about 1080 ng/mL. Moreover, the EC50 in experiment [14] amounted to 0.00195 µg/mL. Moreover, in experiment [15], the IC50 was about 0.36 µg/mL.

B9: G15 (antibody, human IgG2, kappa, V domains shown)
VH: QVQLVQSGAEVKKPGASVKVSCKASGYTFTTYWLQWVRQAPGQGLEWMGAIYPGPGNTKYTQKFKDRVTITADESTSTAYMELSSLRSEDTAVYYCARRGSRRGIAYWGQGTLVTVSA
VL: NIVLTQSPASLSVSLGQRATISCRASESVDSYGRSFMHWYQQRPGQAPRLLIYLASNLESGVPARFSGSGSRTDFTLTISSVEAEDEATYYCQQDNEDPYTFGGGTKLEIKG
notes: expressed in CHO-S cells for Embodiments 23-25
Regarding B9, the “IC50 for inhibiting cell differentiation of RAW264.7” value in experiment [9] was 0.257 µg/mL. In addition, in experiment [10], the IC50 stood at 0.25 µg/mL. Moreover, the EC50 in experiment [11] is 0.00356 µg/mL.

B10: G10 (antibody, human IgG2, kappa, V domains shown)
VH: QVQLVQSGAELKKPGASVKLSCKASGYTFTTYWLQWVRQAPGQGLEWMGAIYPGPGNTKYTQKFKDRFTITADTSKSTAYMQLNSLKSEDSAVYYCARRGSRRGIAYWGQGTLVTVSA
VL: NIVLTQSPASLSVSLGQRATISCRASESVDSYGRSFMHWYQQRPGQAPRLLIYLASNLESGVPARFSGSGSRTDFTLTISSVEAEDEATYYCQQDNEDPYTFGGGTKLEIKG
notes: 293F cells
With B10, the “IC50 (ng/ml) in RAW264.7 cells” value in [6] came out at 695 ng/mL. Moreover, in experiment [7], the EC50 was determined as 0.00285 µg/mL. Also, the IC50 in experiment [8] is 0.4 µg/mL.
